This is an account of results in patent US20030171565.

In the series the target is T1, protein zero related (PZR), tyrosine-phosphorylated.
T1 chain: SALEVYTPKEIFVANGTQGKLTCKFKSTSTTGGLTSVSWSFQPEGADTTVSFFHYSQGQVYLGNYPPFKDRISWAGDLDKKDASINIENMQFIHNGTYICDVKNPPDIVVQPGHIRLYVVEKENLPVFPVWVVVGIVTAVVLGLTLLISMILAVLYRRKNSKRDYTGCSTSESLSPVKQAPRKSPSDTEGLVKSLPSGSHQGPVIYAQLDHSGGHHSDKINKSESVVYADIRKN

B1: tyrosine phosphatase SHP-2, native full-length form (protein)
chain: TSRRWFHPNITGVEAENLLLTRGVDGSFLARPSKSNPGDFTLSVRRNGAVTHIKIQNTGDYYDLYGGEKFATLAELVQYYMEHHGQLKEKNGDVIELKYPLNCADPTSERWFHGHLSGKEAEKLLTEKGKHGSFLVRESQSHPGDFVLSVRTGDDKGESNDGKSKVTHVMIRCQELKYDVGGGERFDSLTDLVEHYKKNPMVETLGTVLQLKQPLNTTRINAAEIESRVRELSKLAETTDKVKQGFWEEFETLQQQECKLLYSRKEGQRQENKNKNRYKNILPFDHTRVVLHDGDPNEPVSDYINANIIMPEFETKCNNSKPKKSYIATQGCLQNTVNDFWRMVFQENSRVIVMTTKEVERGKSKCVKYWPDEYALKEYGVMRVRNVKESAAHDYTLRELKLSKVGQGNTERTVWQYHFRTWPDHGVPSDPGGVLDFLEEVHHKQESIMDAGPVVVHCSAGIGRTGTFIVIDILIDIIREKGVDCDIDVPKTIQMVRSQRSGMVQTEAQYRFIYMAVQHYIETLQRRIEEEQKSKRKGHEYTNIKYSLADQTSGDQSPLPPCTPTPPCAEMREDSARVYENVGLMQQQKSFR
B1: the “dephosphorylation of purified p43 in vitro (anti-phosphotyrosine Western blot)” value is “SHP-2 caused complete dephosphorylation of p43”, the “in vitro dephosphorylation of immuno-purified tyrosine-phosphorylated PZR” value is listed as “higher concentrations of SHP-2 (up to 5 µg/ml) helped to push the dephosphorylation to near completion” and the “in vitro dephosphorylation of immuno-purified tyrosine-phosphorylated PZR (anti-phosphotyrosine Western blot)” value is “full length SHP-2 caused rapid dephosphorylation”.

B2: SH2 domain-truncated form of SHP-2 (protein)
chain: NPMVETLGTVLQLKQPLNTTRINAAEIESRVRELSKLAETTDKVKQGFWEEFETLQQQECKLLYSRKEGQRQENKNKNRYKNILPFDHTRVVLHDGDPNEPVSDYINANIIMPEFETKCNNSKPKKSYIATQGCLQNTVNDFWRMVFQENSRVIVMTTKEVERGKSKCVKYWPDEYALKEYGVMRVRNVKESAAHDYTLRELKLSKVGQGNTERTVWQYHFRTWPDHGVPSDPGGVLDFLEEVHHKQESIMDAGPVVVHCSAGIGRTGTFIVIDILIDIIREKGVDCDIDVPKTIQMVRSQRSGMVQTEAQYRFIYMAVQHYIETLQRRIEEEQKSKRKGHEYTNIKYSLADQTSGDQSPLPPCTPTPPCAEMREDSARVYENVGLMQQQKSFR
For B2, the “in vitro dephosphorylation of immuno-purified tyrosine-phosphorylated PZR (anti-phosphotyrosine Western blot)” value is listed as “the truncated enzyme had essentially no effect”.
